Assay results reported in patent US5298404.

Tests used:
[1] = test system: HpaI restriction endonuclease (native) (Haemophilus parainfluenzae); assay: cleavage_in_vitro; conditions: 10 mM Tris pH 7.5, 10 mM MgCl2, 100 mM NaCl, 37 C
[2] = test system: HpaI restriction endonuclease (recombinant) (Haemophilus parainfluenzae); assay: cleavage_in_vitro; conditions: assay as for native enzyme; Mg2+, 37 C

phage lambda DNA
activity [1]: 250000 units/mg
activity [2]: 250000 units/mg
